From paper PMC10772121 (Scientific Reports, 2024) come the findings set out here.

Several values for one entry are separate records, joined by “and”; a condition that tells them apart may be missing. Identical values can stand only once.

What all share (conditions): both partners purified
The target in one experiment is T1, KIR2DL3 H50R ectodomain (Homo sapiens, UniProt P43628-1, H50R).
T1 construct: also called KIR2DL3 H50R (293F); Var7; source: HEK 293F supernatant, purified (EDTA-resistant Ni-NTA, size exclusion chromatography)
T1 sequence (P43628 22-245 H71R): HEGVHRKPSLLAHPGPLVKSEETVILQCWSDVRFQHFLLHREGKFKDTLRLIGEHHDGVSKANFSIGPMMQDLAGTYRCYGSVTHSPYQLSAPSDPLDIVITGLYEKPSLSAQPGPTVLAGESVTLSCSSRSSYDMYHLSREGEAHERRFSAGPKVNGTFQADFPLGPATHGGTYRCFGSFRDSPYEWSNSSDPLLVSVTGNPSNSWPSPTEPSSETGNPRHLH
Nature of the experiment: BLI; lirilumab (IgG1) loaded on AHC (anti-human IgG) biosensors, KIR protein as analyte (two-fold dilutions from 250 nM); Octet RED384, 25 °C, 20 mM MOPS pH 7.5, 150 mM NaCl, 0.1% BSA, 0.02% Tween-20; global 1:1 binding model, at least 4 curves; single replicates. Background: BLI is a label-free optical method that tracks binding on a fibre tip over time.

The target of another experiment is T2, KIR2DL3 ectodomain (Homo sapiens, UniProt P43628-1).
T2 construct: also called wild-type KIR2DL3; KIR2DL3 (293F); source: HEK 293F supernatant, purified (EDTA-resistant Ni-NTA, size exclusion chromatography)
T2 sequence (P43628 22-245): as the sequence (P43628 22-245 H71R) above, with R50H counted along it
Described as above.

Experiment [1] addresses T3, KIR2DL1 (Sino Biological 13,145-H08H) (Homo sapiens; allele of bought protein …, UniProt P43626-1).
T3 construct: human KIR2DL1, commercially sourced recombinant protein; The catalogue product is recalled to be the extracellular domain with a C-terminal His tag; also called KIR2DL1 (293, Sino Biological); source: bought: Sino Biological 13,145-H08H (293)
The experiment is described as above.

In the next experiment the target is T4, KIR2DL3 F45Y ectodomain (Homo sapiens, UniProt P43628-1, F45Y).
T4 construct: also called KIR2DL3 F45Y (293F); Var4; source: HEK 293F supernatant, purified (EDTA-resistant Ni-NTA, size exclusion chromatography)
T4 sequence (P43628 22-245 F66Y): as the sequence (P43628 22-245 H71R) above, with F45Y, R50H counted along it
Described as above.

The target in a further experiment is T5, KIR2DL3 D47N ectodomain (Homo sapiens, UniProt P43628-1, D47N).
T5 construct: also called KIR2DL3 D47N (293F); Var6; source: HEK 293F supernatant, purified (EDTA-resistant Ni-NTA, size exclusion chromatography)
T5 sequence (P43628 22-245 D68N): as the sequence (P43628 22-245 H71R) above, with D47N, R50H counted along it
Nature of the experiment: BLI; lirilumab (IgG1) loaded on AHC biosensors, KIR2DL3 D47N as analyte (peak concentration 500 nM); Octet RED384, 25 °C, 20 mM MOPS pH 7.5, 150 mM NaCl, 0.1% BSA, 0.02% Tween-20; steady state binding model because the 1:1 model fitted poorly; single replicates.

Another experiment has as its target T6, KIR2DL3 D47N (Homo sapiens, UniProt P43628-1, D47N).
T6 construct: also called KIR2DL3 D47N variant; KIR2DL3 D47N mutant; source: HEK 293F, purified as the CHO-S protein (HisTrap FF)
Description: BLI; lirilumab (IgG1) loaded on anti-human IgG (AHC) biosensors, KIR2DL3 D47N as analyte, two-fold dilutions from 500 nM; 25 °C; 20 mM MOPS pH 7.5, 150 mM NaCl, 0.1% BSA, 0.02% Tween-20; steady state equilibrium model (kinetic fit unsuccessful); average of 3 technical replicates.

For experiment [2], the target named is T7, Commercially sourced KIR2DL1 (Sino Biological 13,145-H08H) (Homo sapiens; allele of bought protein …, UniProt P43626-1).
T7 construct: KIR2DL1, commercially sourced recombinant protein; source: bought: Sino Biological
T7 sequence (P43626 22-245): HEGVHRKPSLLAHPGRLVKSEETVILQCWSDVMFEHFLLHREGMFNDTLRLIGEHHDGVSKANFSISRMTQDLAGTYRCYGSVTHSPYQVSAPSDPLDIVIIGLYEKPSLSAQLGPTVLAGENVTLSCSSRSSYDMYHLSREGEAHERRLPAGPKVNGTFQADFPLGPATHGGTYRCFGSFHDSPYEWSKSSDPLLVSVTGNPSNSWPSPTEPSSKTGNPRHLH
Nature of the experiment: BLI; lirilumab (IgG1) loaded on anti-human IgG (AHC) biosensors, KIR protein as analyte, 6 two-fold dilutions from 250 nM; 25 °C; 20 mM MOPS pH 7.5, 150 mM NaCl, 0.1% BSA, 0.02% Tween-20; global 1:1 fit; average of 3 technical replicates.

The target of a further experiment is T8, KIR2DL3 F45Y (Homo sapiens, UniProt P43628-1, F45Y).
T8 construct: also called KIR2DL3 F45Y variant; source: HEK 293F, purified as the CHO-S protein (HisTrap FF)
T8 sequence (P43628 22-245 F66Y): as the sequence (P43628 22-245 H71R) above, with F45Y, R50H counted along it
The experiment is described as above.

Experiment [3] concerns the target T9, wild-type KIR2DL3 ectodomain (HEK 293F) (Homo sapiens, UniProt P43628-1).
T9 construct: Same construct as m3 but expressed in HEK 293F cells for BLI; source: HEK 293F, purified as the CHO-S protein (HisTrap FF)
The description is as above.

The target in another experiment is T10, KIR2DL3 H50R (Homo sapiens, UniProt P43628-1, H50R).
T10 construct: also called KIR2DL3 H50R variant; source: HEK 293F, purified as the CHO-S protein (HisTrap FF)
T10 sequence (P43628 22-245 H71R): as the sequence (P43628 22-245 H71R) above
The experiment is described as above.

T3 sequence (P43626 22-245): as the sequence (P43626 22-245) above
T9 sequence (P43628 22-245): as the sequence (P43628 22-245 H71R) above, with R50H counted along it
T6 sequence (P43628 22-245 D68N): as the sequence (P43628 22-245 H71R) above, with D47N, R50H counted along it

B1: lirilumab (IgG1) (antibody, V domains shown)
VH: QVQLVQSGAEVKKPGSSVKVSCKASGGTFSFYAISWVRQAPGQGLEWMGGFIPIFGAANYAQKFQGRVTITADESTSTAYMELSSLRSDDTAVYYCARIPSGSYYYDYDMDVWGQGTTVTVSS
VL: EIVLTQSPVTLSLSPGERATLSCRASQSVSSYLAWYQQKPGQAPRLLIYDASNRATGIPARFSGSGSGTDFTLTISSLEPEDFAVYYCQQRSNWMYTFGQGTKLEIK
For orientation: Kd means the constant that tells how readily two partners part at equilibrium. Broadly, the koff is the first-order rate constant of dissociation. A high value points to fast dissociation. As usually defined, the kon is the second-order rate constant of association. High values mean fast association, low ones slow association. Take B1: the Kd with KIR2DL3 H50R ectodomain was 7.98 nM and 10.6 nM and 15 nM; with KIR2DL3 ectodomain, 1.64 nM and 2.83 nM and 3.78 nM; in experiment [1], 11.5 nM and 9.6 nM and 8.8 nM; with KIR2DL3 F45Y ectodomain it was 10.2 nM and 10.8 nM and 8.5 nM; with KIR2DL3 D47N ectodomain it was 1400 nM and 1900 nM. Also, the koff is 0.00195 s⁻¹ and 0.00244 s⁻¹ and 0.00317 s⁻¹ with KIR2DL3 H50R ectodomain; 0.000366 s⁻¹ and 0.000622 s⁻¹ and 0.000892 s⁻¹ with KIR2DL3 ectodomain; 0.000954 s⁻¹ and 0.000995 s⁻¹ and 0.000947 s⁻¹ in experiment [1]; 0.00125 s⁻¹ and 0.00155 s⁻¹ and 0.00145 s⁻¹ with KIR2DL3 F45Y ectodomain. The kon was 244000 M⁻¹ s⁻¹ and 231000 M⁻¹ s⁻¹ and 212000 M⁻¹ s⁻¹ with KIR2DL3 H50R ectodomain; 224000 M⁻¹ s⁻¹ and 220000 M⁻¹ s⁻¹ and 236000 M⁻¹ s⁻¹ in the experiment with KIR2DL3 ectodomain; 83200 M⁻¹ s⁻¹ and 104000 M⁻¹ s⁻¹ and 107000 M⁻¹ s⁻¹ in experiment [1]; 122000 M⁻¹ s⁻¹ and 144000 M⁻¹ s⁻¹ and 170000 M⁻¹ s⁻¹ with KIR2DL3 F45Y ectodomain.

B2: lirilumab (IgG1) (antibody, V domains shown)
VH: B1 VH
VL: B1 VL
As to B2, the equilibrium dissociation constant (Kd) turned out to be 1650 nM with KIR2DL3 D47N; 10 nM in experiment [2]; 9.9 nM with KIR2DL3 F45Y; 2.8 nM in experiment [3]; 11.2 nM in the experiment with KIR2DL3 H50R.
